The source of these data is patent US20190330277A1.

Usually Kd stands for a measure of binding affinity in units of concentration.

In assay [1] the target is bRSV RB94 DSCav1 (bovine respiratory syncytial virus, strain RB94) (UniProt P23728). Description: biolayer interferometry (Octet), variant on Ni-NTA tip, Fab in solution. In general terms: Biolayer interferometry detects binding as a change in optical thickness at a sensor tip.
The target is the same in assay [2].
The target is the same in assay [3]. The experiment in a line: biolayer interferometry Octet binding analysis.
Assay [4] addresses 391-2 sc9 DS-Cav1 98C-362C. The experiment in a line: ELISA, variant from culture supernatant on Ni-NTA plate.
The target in assay [5] is 391-2-DS-Cav1-sc9 100C-362C. The description is as above.
The target in assay [6] is 391-2-DS-Cav1-sc9 99C-361C. The description is as above.
In assay [7] the target is 391-2-DS-Cav1-sc9 99C-362C. The assay is described as above.
For assay [8], the target named is 391-2-DS-Cav1-sc9deleteFS 98C-362C. The description is as above.
Assay [9] has as its target 391-2-DS-Cav1_ sc9_I28C-G464C. Described as above.
In assay [10] the target is RB94 sc9 DS-CAV1 N183GC-N428C L373R Long K226L. The description is as above.
The target in assay [11] is RB94 sc9 DS-CAV1 N183GC-N428C L373R Long. Described as above.
For assay [12], the target named is RB94 sc9 DS-CAV1 N183GC-N428C L373R. Described as above.
For assay [13], the target named is 391-2-DS-Cav1-BZGJ9deleteFS. The experiment in a line: ELISA, variant from culture supernatant on Ni-NTA plate [continued].

Chain of MPE8 antibody (VH): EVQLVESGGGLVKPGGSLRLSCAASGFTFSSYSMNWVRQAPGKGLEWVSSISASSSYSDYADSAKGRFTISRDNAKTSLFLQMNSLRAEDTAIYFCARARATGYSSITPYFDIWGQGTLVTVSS
Chain of MPE8 antibody (VL): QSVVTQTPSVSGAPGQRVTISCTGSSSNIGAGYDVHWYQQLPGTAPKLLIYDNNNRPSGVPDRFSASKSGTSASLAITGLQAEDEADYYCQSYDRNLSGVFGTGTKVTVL

AM14 Fab gave a dissociation constant Kd in assay [1] of 4.9 nM.
With MPE8 Fab, the equilibrium dissociation constant (Kd) in assay [1] turned out to be 0.2 nM.
Regarding MPE8 antibody, the ELISA binding value in assay [2] was determined as 0.199; in [4] it was 0.48; in assay [5], 0.131; in assay [6] it was 0.198; in [7], 0.311; in assay [8], 0.448. Also, the ELISA binding value in [9] is 0.203; in assay [10] it was 0.293; in [11] it was 0.335; in assay [12], 0.322; in assay [13] it was 0.0675. This substance also displayed a response level (biolayer interferometry) in assay [3] of 0.5 nm.
Consider motavizumab Fab, for which, in [1], the dissociation constant (Kd) came to 0.9 nM.
